Data taken from patent US6428997B1, “Aminopeptidase derived from Bacillus licheniformis and process for preparation of natural type proteins” (LG Chemical Ltd., priority 1997, dated 2002).

Key:
[1] = test system: leucyl oligopeptide of SEQ. ID. NO: 2; experiment: Kinetic parameters of aminopeptidase, leucyl oligopeptide substrate; type: biochemical; conditions: 37° C.
Text: (§1) In order to compare substrate specificity of aminopeptidase of this invention, 2 kinds of substrate were used. In detail, one was synthetic substrates of p-nitroanilide derivative and purchased from Sigma, USA and the other was oligopeptide such as methionyl oligopeptide of SEQ. ID. NO: 1 which have amino acid sequence similar to N-terminus of methionyl HGH and leucyl oligopeptide of SEQ. ID. NO: 2. The oligopeptides of this invention were synthesized.
(§2) In addition oligopeptide was also used as substrate to perform enzyme reaction by using substrate of known concentration and aminopeptidase in buffer containing 0.1M Tris-Cl, 0.1M NaCl to make 500 μl reaction volume. The enzyme reaction was performed at 37° C. and after 5 and 10 min 250 μl of reaction mixture was adopted and added 70% acetic acid to stop the reaction. The reaction mixture was analyzed by performing HPLC chromatography.
(§3) In reaction condition mentioned above, initial velocity of enzyme reaction was measured with varying the substrate concentration. Lineweaver-Burk plot was used to determine Km value and Maximum reaction velocity of aminopeptidase from Bacillus licheniformis. In addition kcat and kcat/Km was determined by using Km value and maximum reaction velocity described above.

[2] = test system: methionyl oligopeptide of SEQ. ID. NO: 1; experiment: Kinetic parameters of aminopeptidase, methionyl oligopeptide substrate; type: biochemical; conditions: 37° C.
Text: as §1, §2, §3

B1: Aeromonas proteolytica aminopeptidase: Aeromonas proteolytica (Vibrio prozeolytica) aminopeptidase (Korean Patent Publication NO. 94-14804), comparison enzyme (protein)
chain: MPPITQQATVTAWLPQVDASQITGTISSLESFTNRFYTTTSGAQASDWIASEWQALSASLPNASVKQVSHSGYNQKSVVMTITGSEAPDEWIVIGGHLDSTIGSHTNEQSVAPGADDDASGIAAVTEVIRVLSENNFQPKRSIAFMAYAAEEVGLRGSQDLANQYKSEGKNVVSALQLDMTNYKGSAQDVVFITDYTDSNFTQYLTQLMDEYLPSLTYGFDTCGYACSDHASWHNAGYPAAMPFESKFNDYNPRIHTTQDTLANSDPTGSHAKKFTQLGLAYAIEMGSATGDTPTPGNQ
B1 was tested, and the Km [1] was 336 µM, the kcat [1] was 70.29 s⁻¹ and the Km [2] was 956 µM. For the same molecule, the kcat [2] was 3.23 s⁻¹.
